Laboratory results taken from US20080003218A1 (Genentech, published 2008).
Like-named read-outs stand apart in the source and are kept apart here.

Key:
[1] = molecular target: IgE bound to FcεRI on human peripheral blood basophils (human, UniProt P01854 1-546; P12319 26-257); assay: cell-based or functional assay
human IgE [2] = molecular target: T1, human IgE (human, UniProt P01854 1-546); assay: soluble receptor assay, biotin-IgE binding to coated FcεRI α-chain IgG chimera
[3] = molecular target: membrane IgE on U266B1 cells (human, UniProt P01854 1-546); assay: FACS on membrane IgE+ U266B1 cells
human IgE [4] = molecular target: T1, human IgE; assay: equilibrium binding (Scatchard), 125I-IgE
human IgE [5] = molecular target: T1, human IgE; assay: soluble receptor assay, biotin-IgE binding to coated FcεRI α-chain IgG chimera; remark: listed apart in the source

T1 sequence (P01854 whole entry): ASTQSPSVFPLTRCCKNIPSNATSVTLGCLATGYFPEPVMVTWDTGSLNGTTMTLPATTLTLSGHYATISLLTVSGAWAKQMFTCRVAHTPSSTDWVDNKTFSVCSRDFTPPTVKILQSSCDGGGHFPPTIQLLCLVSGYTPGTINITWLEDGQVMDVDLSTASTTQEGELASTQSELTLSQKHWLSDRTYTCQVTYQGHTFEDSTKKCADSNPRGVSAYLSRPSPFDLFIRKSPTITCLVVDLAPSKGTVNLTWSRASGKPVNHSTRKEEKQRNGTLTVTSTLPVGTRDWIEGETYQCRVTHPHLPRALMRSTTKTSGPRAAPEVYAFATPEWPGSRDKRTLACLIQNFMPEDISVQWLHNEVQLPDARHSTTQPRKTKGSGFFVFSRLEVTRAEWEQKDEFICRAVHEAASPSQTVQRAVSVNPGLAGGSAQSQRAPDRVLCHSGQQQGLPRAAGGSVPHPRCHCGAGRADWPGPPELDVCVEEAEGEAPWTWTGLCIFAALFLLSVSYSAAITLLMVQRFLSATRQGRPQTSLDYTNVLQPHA
membrane IgE on U266B1 cells, sequence (P01854 whole entry, one chain of several): as the sequence (P01854 whole entry) above
IgE bound to FcεRI on human peripheral blood basophils, sequence (P01854 whole entry, chain 1 of 2): as the sequence (P01854 whole entry) above
IgE bound to FcεRI on human peripheral blood basophils, sequence (P12319 26-257, chain 2 of 2): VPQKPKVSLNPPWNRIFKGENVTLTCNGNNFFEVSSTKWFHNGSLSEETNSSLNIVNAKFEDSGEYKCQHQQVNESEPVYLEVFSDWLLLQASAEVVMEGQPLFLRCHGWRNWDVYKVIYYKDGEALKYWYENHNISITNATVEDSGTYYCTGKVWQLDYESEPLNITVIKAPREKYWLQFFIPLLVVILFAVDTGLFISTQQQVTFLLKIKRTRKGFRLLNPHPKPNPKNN

PBL histamine release (EC50) [1]: > 100 µg/mL
IC50 (human IgE [2]): 0.179 µg/mL
ratio F(ab)-X/F(ab)-2 (human IgE [2]): 0.03 ratio
ratio F(ab)-X/MaE11 (human IgE [2]): 1 ratio
EC50 [3]: 0.15 µg/mL
Kd (human IgE [4]): 30 nM
IC50 (human IgE [5]): 0.449 µg/mL
ratio Variant X/IgG1-2 (human IgE [5]): 0.06 ratio
ratio Variant X/MaE11 (human IgE [5]): 1 ratio
B1: murine anti-human IgE monoclonal antibody MaE11 (antibody, V domains shown)
VH: DVQLQESGPGLVKPSQSLSLACSVTGYSITSGYSWNWIRQFPGNKLEWMGSITYDGSSNYNPSLKNRISVTRDTSQNQFFLKLNSATAEDTATYYCARGSHYFGHWHFAVWGAGTTVTVSS
VL: DIQLTQSPASLAVSLGQRATISCKASQSVDYDGDSYMNWYQQKPGQPPILLIYAASYLGSEIPARFSGSGSGTDFTLNIHPVEEEDAATFYCQQSHEDPYTFGAGTKLEIK
notes: Murine IgG1; immunogen U266 IgE; also called murine mAb MaE11
